# B1: Myelin protein zero (MPZ) (protein, UniProt P25189 1-248, looked up, species assumed)
# chain: MAPGAPSSSPSPILAVLLFSSLVLSPAQAIVVYTDREVHGAVGSRVTLHCSFWSSEWVSDDISFTWRYQPEGGRDAISIFHYAKGQPYIDEVGTFKERIQWVGDPRWKDGSIVIHNLDYSDNGTFTCDVKNPPDIVGKTSQVTLYVFEKVPTRYGVVLGAVIGGVLGVVLLLLLLFYVVRYCWLRRQAALQRRLSAMEKGKLHKPGKDASKRGRQTPVLYAMLDHSRSTKAVSEKKAKGLGESRKDKK
# modifications: full-length
# B2: human β3 (sodium channel beta-3 subunit, SCN3B) (protein, UniProt Q9NY72 23-215, looked up)
# chain: FPVCVEVPSETEAVQGNPMKLRCISCMKREEVEATTVVEWFYRPEGGKDFLIYEYRNGHQEVESPFQGRLQWNGSKDLQDVSITVLNVTLNDSGLYTCNVSREFEFEAHRPFVKTTRLIPLRVTEEAGEDFTSVVSEIMMYILLVFLTLWLLIEMIYCYRKVSKAEEAAQENASDYLAIPSENKENSAVPVEE
# B3: human β4 (sodium channel beta-4 subunit, SCN4B) (protein, UniProt Q8IWT1 31-228, looked up)
# chain: LEVSVGKATDIYAVNGTEILLPCTFSSCFGFEDLHFRWTYNSSDAFKILIEGTVKNEKSDPKVTLKDDDRITLVGSTKEKMNNISIVLRDLEFSDTGKYTCHVKNPKENNLQHHATIFLQVVDRLEEVDNTVTLIILAVVGGVIGLLILILLIKKLIIFILKKTREKKKECLVSSSGNDNTENGLPGSKAEEKPPSKV
# Biological target: NaV1.5-V5 (cardiac voltage-gated sodium channel alpha subunit, SCN5A)
# Assay: cell-based or functional assay
molecule,measurement,value
"rat β1-V5-6×HIS (sodium channel beta-1 subunit, SCN1B) (from UniProt Q00954 19-218)","GV ΔV1/2 (mV), whole-cell patch clamp, BeHAPe cells, NaV1.5 + β1",6.7 mV
same,"GV ΔV1/2 (mV), whole-cell patch clamp, eHAP cells, NaV1.5 + β1",0.2 mV
same,"SSI ΔV1/2 (mV), whole-cell patch clamp, BeHAPe cells, NaV1.5 + β1",8.8 mV
same,"SSI ΔV1/2 (mV), whole-cell patch clamp, eHAP cells, NaV1.5 + β1",3.2 mV
same,"shift of GV V1/2 (fit to mean values, FIG. 5A), BeHAPe cells",7.5 mV
same,"shift of SSI V1/2 (fit to mean values, FIG. 5A), BeHAPe cells",7.5 mV
same,"Δτ inactivation at V1/2 (ms), whole-cell patch clamp, BeHAPe cells, NaV1.5 + β1",-1.7 ms
same,"Δτ inactivation at V1/2 (ms), whole-cell patch clamp, eHAP cells, NaV1.5 + β1",-0.3 ms
"rat β2-HA (sodium channel beta-2 subunit, SCN2B) (from UniProt P54900 30-215)","GV ΔV1/2 (mV), whole-cell patch clamp, BeHAPe cells, NaV1.5 + β2",-2.5 mV
same,"SSI ΔV1/2 (mV), whole-cell patch clamp, BeHAPe cells, NaV1.5 + β2",-9.9 mV
same,"shift of SSI V1/2 (fit to mean values, FIG. 5B), BeHAPe cells",-5.9 mV
same,"Δτ inactivation at V1/2 (ms), whole-cell patch clamp, BeHAPe cells, NaV1.5 + β2",-0.5 ms
β1 & β2 (rat β1-V5-6×HIS and rat β2-HA simultaneously co-expressed) (from UniProt Q00954 19-157; P54900 30-157),"GV ΔV1/2 (mV), whole-cell patch clamp, BeHAPe cells, NaV1.5 + β1 & β2",7.9 mV
same,"SSI ΔV1/2 (mV), whole-cell patch clamp, BeHAPe cells, NaV1.5 + β1 & β2",9.1 mV
same,"shift of GV V1/2 (fit to mean values, FIG. 5E), BeHAPe cells",9.3 mV
same,"shift of SSI V1/2 (fit to mean values, FIG. 5E), BeHAPe cells",13.4 mV
same,"Δτ inactivation at V1/2 (ms), whole-cell patch clamp, BeHAPe cells, NaV1.5 + β1 & β2",0 ms
B1,"GV ΔV1/2 (mV), whole-cell patch clamp, BeHAPe cells, NaV1.5 + MPZ",8.7 mV
same,"SSI ΔV1/2 (mV), whole-cell patch clamp, BeHAPe cells, NaV1.5 + MPZ",6.3 mV
same,"shift of GV V1/2 (fit to mean values, FIG. 5F), BeHAPe cells",7.4 mV
same,"shift of SSI V1/2 (fit to mean values, FIG. 5F), BeHAPe cells",6.9 mV
same,"Δτ inactivation at V1/2 (ms), whole-cell patch clamp, BeHAPe cells, NaV1.5 + MPZ",0.2 ms
B2,"GV ΔV1/2 (mV), whole-cell patch clamp, BeHAPe cells, NaV1.5 + β3",8.8 mV
same,"SSI ΔV1/2 (mV), whole-cell patch clamp, BeHAPe cells, NaV1.5 + β3",9.1 mV
same,"shift of GV V1/2 (fit to mean values, FIG. 5C), BeHAPe cells",7.4 mV
same,"shift of SSI V1/2 (fit to mean values, FIG. 5C), BeHAPe cells",9.4 mV
same,"Δτ inactivation at V1/2 (ms), whole-cell patch clamp, BeHAPe cells, NaV1.5 + β3",0.4 ms
B3,"GV ΔV1/2 (mV), whole-cell patch clamp, BeHAPe cells, NaV1.5 + β4",5.2 mV
same,"SSI ΔV1/2 (mV), whole-cell patch clamp, BeHAPe cells, NaV1.5 + β4",2.4 mV
same,"shift of GV V1/2 (fit to mean values, FIG. 5D), BeHAPe cells",6.1 mV
same,"Δτ inactivation at V1/2 (ms), whole-cell patch clamp, BeHAPe cells, NaV1.5 + β4",0.5 ms
